Data on four molecules can be found in patent publication US20190112385A1 (NBE THERAPEUTICS, published 2019).

Assay [1] concerns the target T1, StrepII-tagged Mesothelin (human mesothelin isoform 2, NP_037536, with C-terminal strepII-tag) (human, UniProt Q13421-1 296-606, limits assumed).
T1 construct: also called Mesothelin-strep; soluble antigen
The assay can be described thus: SPR (Biacore T200), mAb from 293T supernatant captured by anti-human Fc-gamma IgG, Mesothelin-strep 10 to 1.25 nM as analyte, 25 °C, 1:1 model. As for the experimental part: (§1) Table 1. Affinities of parental mouse mAb MN and humanized versions thereof. To evaluate the binding strength (affinity) of the generated humanized monoclonal antibodies (mAbs), and to compare affinites with parental mAbs, surface plasmon resonance (SPR) measurements were conducted, a biophysical method to accurately determine affinity. SPR was performed using a Biacore T200 instrument (GE Healthcare, Buckinghamshire, UK) and data was evaluated using Biacore Evaluation T200 V2.0 software. To capture mAbs, goat a-human Fc-gamma-specific IgG (Jackson ImmunoResearch, #109-005-098) was covalently immobilized on a CMS chip (GE Healthcare, # BR-1005-30).
FIG. 10C Isoaffinity plot showing association (kₐ) and dissociation constants (kd) as determined by surface plasmon resonance (SPR). The same supernatants as described in (B) were used for the analysis. Diagonal lines represent equal affinities.
On the technique in general: SPR reads the build-up and loss of mass on a sensor chip optically.

The target in assay [2] is T1, StrepII-tagged Mesothelin (human …). The assay can be described thus: SPR (Biacore T200), mAb captured by anti-human Fc-gamma IgG (ligand level 106.5 RU), Mesothelin-strep 10 to 1.25 nM as analyte, 25 °C, 1:1 model; Chi2 0.052 RU2. As for the experimental part: as §1
(§2) Mesothelin-strep was diluted in running buffer using 2-fold serial dilutions ranging from 10 nM to 1.25 nM. Association was measured at a flow of 30 μl/min for 120 s, and dissociation was followed for 1000 s. All measurements were performed at 25° C. All curves were fitted using a 1:1 binding model with RI=0. Regeneration was done for 90 s using 100 mM H3PO4 at a flow of 30 μl/min.

Assay [3] shares this target. The assay can be described thus: ELISA of 293T supernatant on coated Mesothelin, normalized to IgG titer and given relative to parental mAb MN. As for the experimental part: (§3) Antigen-binding analysis by ELISA was performed by coating of Nunc-Immuno MaxiSorp 96-well plates (Thermo Scientific, Waltham, USA) with antigen diluted in coating buffer (100 mM bicarbonate/carbonate buffer) over night at 4° C. For sandwich ELISA, plates were coated with 2 μg/ml AffiniPure F(ab′)2 fragment donkey anti-human IgG (Jackson Immunoresearch, West Grove, USA) diluted in coating buffer over night at 4° C. After coating, plates were washed twice with PBS/0.05% Tween-20 (PBS-T), blocked with PBS-T containing 3% bovine serum albumin (BSA) (Carl Roth, Karlsruhe, Germany) for 1 hour at 37° C. and washed again 5 times with PBS/T. L11 clone supernatants were pre-diluted 3-fold, while supernatants from 293T cells were pre-diluted 50-fold. Parental mAbs diluted to 0.5 μg/ml were used to generate standard curves. 3.5-fold serial dilutions of samples were added and plates were incubated for 1 hour at 37° C. After 5 washes with PBS/T, HRPO-conjugated F(ab)2 anti-human FC-gamma (Jackson Immunoresearch, West Grove, USA) was added at 10′000-fold dilution in PBS/T containing 1% BSA, and plates were incubated for 1 hour at 37° C. Finally, plates were washed 5 times with PBS/T and 50 μl of Sigmafast OPD Peroxidase substrate (Sigma-Aldrich, St. Louis, USA) were added. Reactions were stopped by adding 50 μl of 2M H₂SO₄. Absorption was measured at 490 nm. OD50 values of standards with known concentrations and samples determined by 4-point curve fitting models were used to calculate EC50.
(§4) FIG. 10B Deconvolution and validation of recovered sequences. All possible combinations of VH/VL pairs per clone along with the parental pair as a control were transiently transfected into 293T cells. Cell clones and supernatants were analysed for antigen-binding and IgG titer by ELISA as described in FIG. 4D. Ratios of antigen-binding/IgG titers were determined to obtain antigen binding values normalized to IgG content in supernatants (Meso-binding/IgG). Normalized binding is also shown in relation to parental mAb (binding % of parental).

The target is the same in assay [4]. The assay can be described thus: SPR, Biacore T200, mAb captured by anti-human Fc, Mesothelin-strep as analyte.
Assay [5] has the same target. The assay can be described thus: ELISA of 293T supernatant on coated Mesothelin, divided by the IgG titer from a sandwich ELISA. As for the experimental part:
as §3, §4
Background: ELISA stands for enzyme-linked immunosorbent assay.

Assay [6] has the same target. The assay can be described thus: SPR (Biacore T200), mAb captured by anti-human Fc-gamma IgG (ligand level 90.0 RU), Mesothelin-strep 10 to 1.25 nM as analyte, 25 °C, 1:1 model; Chi2 0.075 RU2. On the procedure: as §1, §2
Assay [7] shares this target. The assay can be described thus: SPR (Biacore T200), mAb captured by anti-human Fc-gamma IgG (ligand level 217.8 RU), Mesothelin-strep 10 to 1.25 nM as analyte, 25 °C, 1:1 model; Chi2 0.151 RU2. On the procedure: as §1, §2
Assay [8] shares this target. The assay can be described thus: SPR (Biacore T200), mAb captured by anti-human Fc-gamma IgG (ligand level 143.6 RU), Mesothelin-strep 10 to 1.25 nM as analyte, 25 °C, 1:1 model; Chi2 0.100 RU2. On the procedure: as §1, §2

T1 sequence (Q13421 other isoform, or with tags, fused parts or gaps limits assumed): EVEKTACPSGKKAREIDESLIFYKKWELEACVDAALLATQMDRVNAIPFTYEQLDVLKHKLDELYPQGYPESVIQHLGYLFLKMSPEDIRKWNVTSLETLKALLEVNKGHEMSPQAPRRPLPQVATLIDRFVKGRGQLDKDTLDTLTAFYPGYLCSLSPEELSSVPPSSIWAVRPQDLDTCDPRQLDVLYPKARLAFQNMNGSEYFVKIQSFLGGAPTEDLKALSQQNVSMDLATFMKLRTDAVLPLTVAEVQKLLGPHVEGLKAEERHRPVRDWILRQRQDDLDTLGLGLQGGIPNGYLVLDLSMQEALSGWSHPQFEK

B1: parental anti-Mesothelin mouse mAb MN, produced as chimeric full-length IgG1 antibody with human constant regions (antibody, V domains shown)
VH: QVQLQQPGAELVKPGASMKLSCKASGYTFTSYWMHWVKQRPGQGLEWIGMIHPNSDNTIYYEKFKSKATLTVDKSSSTAYMQLSSLTSEDSAVYYCAIIITPVVPKFDYWGQGTTLTVSS
VL: DIVMTQSHQFMSTSVGDRVSVTCKASHDVGTSVAWYQQKPGQSPKLLIYWASTRHTGVPDRFTGSGSGTDFTLTISNVQSEDLADYFCQQYSSYPLTFGAGTKLELK
notes: also called VH-MN (parental mouse); parental chimeric antibody
The term koff denotes the first-order rate constant of dissociation. A higher koff goes with fast dissociation. By kon is commonly meant a measure of how fast the partners come together. The Kd is the free concentration of one partner at which half of the binding sites on the other are occupied at equilibrium, for simple one-to-one binding. Read a high Kd as weaker binding. In assay [1], B1 gave a koff of 6.81e-05 s⁻¹. Further, the kon in assay [1] is 1.31e+06 M⁻¹ s⁻¹. Also, the values for the Kd in assay [2] and in assay [4] were 0.05 nM and 0.051 nM, respectively. Besides, the “binding (% of parental)” value in assay [3] is 100 % of parental. For the same molecule, in assay [5], the Meso-binding/IgG was 0.94.

B2: huMN3-1 (antibody, V domains shown)
VH: QVQLQQSGAELVKPGASMKLSCKASGYTFTSYWMHWVRQAPGQGLEWIGAIHPNSDNTIYYQKFKSRVTLTVDKSISTAYMQLSSLTSEDTAVYYCAIIITPVVPKFDYWGQGTTVTVSS
VL: DIQMTQSPSFLSASVGDRVTITCRASHDVGTSLAWYQQKPGQAPKLLIYWASTLQTGVPSRFSGSGSGTEFTLTISSLQPEDFATYYCQQYSSYPLTFGPGTTVDMK
Turning to B2, in assay [1], the Kd was 0.193 nM, the koff was 0.000274 s⁻¹ and the kon came to 1.42e+06 M⁻¹ s⁻¹. In assay [6], this molecule returned a Kd of 0.193 nM. For the same molecule, the “binding (% of parental)” value in assay [3] is 111 % of parental. Besides, in assay [5], the Meso-binding/IgG amounted to 1.04.

B3: huMN5-2 (antibody, V domains shown)
VH: QVQLQQSGAELVKPGASLKLSCKASGYTFTSYWMHWVRQAPGQGLEWIGAIHPNSDNTIYYQKFKSRFTITVDKSTSTAYMQLSSLTSEDTAVYYCAIIITPVVPKFDYWGQGTTVTVSS
VL: DIVMTQSSSFMSASVGDRVSITCKASHDVGTSLAWYQQKPGQSPKLLIYWASTRQTGVPDRFSGSGSGTDFTLTISSVQSEDVATYFCQQYSSYPLTFGQGTKLEIK
notes: No sheet says in words that huMN5a is huMN5-2
In assay [1], B3 came in with a dissociation constant (Kd) of 0.176 nM, a koff of 0.000218 s⁻¹ and a kon of 1.24e+06 M⁻¹ s⁻¹. In addition, the affinity in assay [7], expressed as Kd, was 0.176 nM. In addition, in assay [3], the “binding (% of parental)” value was 84.9 % of parental. In assay [5], the Meso-binding/IgG was determined as 0.79.

B4: huMN5-3 (antibody, V domains shown)
VH: QVQLQQSGAELVKPGASLKLSCKASGYTFTSYWMHWVRQAPGQGLEWIGAIHPNSDNTIYYQKFKSRFTITVDKSTSTAYMQLSSLTSEDTAVYYCAIIITPVVPKFDYWGQGTTVTVSS
VL: DIVMTQSPDSLAVSLGERATITCKSSHDVGTSLAWYQQKPGQPPKLLIYWASTRESGVPDRFSGSGSGTDFTLTISSLQAEDVAVYYCQQYSSYPLTFGQGTKLEIK
notes: No sheet says in words that huMN5b is huMN5-3
Take B4: in assay [1], binding was put at a Kd of 0.114 nM, the koff was 0.000115 s⁻¹ and the kon is 1.01e+06 M⁻¹ s⁻¹. This molecule displayed a Kd in assay [8] of 0.114 nM. Also, the “binding (% of parental)” value in assay [3] was 82.4 % of parental. In addition, the Meso-binding/IgG in assay [5] is 0.77.
